Reference: article PMC6736995, “Insights Into Enhanced Complement Activation by Structures of Properdin and Its Complex With the C-Terminal Domain of C3b” (Frontiers in Immunology, 2019)

How the values were obtained:
C3b (Homo sapiens) = C3b (Homo sapiens) (UniProt P01024); conditions: cited from earlier work
[1] = biological target: T1, C3b, biotinylated at the free cysteine of the hydrolysed thioester (human, UniProt P01024 23-667; P01024 749-1663, biotin (EZ-Link Maleimide-PEG2-Biotin) on the free cysteine that is generated after hydrolysis of the reactive thioester); assay: SPR; biotinylated C3b on a SensEye P-Strep chip; P^N12/456 injected 1.2 × 10^-3 to 10 μM; low ionic strength, 20 mM HEPES pH 7.4, 0.005% Tween-20, 50 mM NaCl; 25°C; equilibrium end-point fit; conditions: both partners purified
T1 construct: complement C3 beta chain, human; C3b alpha' chain, human; Coupled to a streptavidin chip through the biotin; also called C3b coated chip; source: generated from C3 (purified from human plasma) with FB and FD, biotinylated, purified by SEC
T1 sequence (P01024 23-667, one chain of several): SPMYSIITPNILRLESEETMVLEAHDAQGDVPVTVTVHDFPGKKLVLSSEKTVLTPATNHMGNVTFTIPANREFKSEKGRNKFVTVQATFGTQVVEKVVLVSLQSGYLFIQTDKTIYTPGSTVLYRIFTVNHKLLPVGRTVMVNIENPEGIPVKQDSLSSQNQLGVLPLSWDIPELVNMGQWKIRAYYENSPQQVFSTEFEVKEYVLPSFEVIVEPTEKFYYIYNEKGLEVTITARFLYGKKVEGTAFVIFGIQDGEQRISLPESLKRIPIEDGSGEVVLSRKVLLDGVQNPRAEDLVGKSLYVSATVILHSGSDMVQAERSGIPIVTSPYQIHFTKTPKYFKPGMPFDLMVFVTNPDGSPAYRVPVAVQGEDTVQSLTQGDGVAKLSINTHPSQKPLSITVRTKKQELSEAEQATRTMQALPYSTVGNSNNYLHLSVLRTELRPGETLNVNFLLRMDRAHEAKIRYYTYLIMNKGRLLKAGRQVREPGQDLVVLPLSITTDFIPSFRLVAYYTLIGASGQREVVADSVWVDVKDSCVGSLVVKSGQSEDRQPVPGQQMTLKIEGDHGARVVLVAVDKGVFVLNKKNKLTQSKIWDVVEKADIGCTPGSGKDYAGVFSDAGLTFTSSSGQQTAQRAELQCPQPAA

[2] = biological target: T1, C3b, biotinylated at the free cysteine …; assay: SPR; biotinylated C3b on a SensEye P-Strep chip (IBIS-MX96); P^N12/456 injected 4.9 × 10^-3 to 40 μM in 14 2-fold steps; 20 mM HEPES pH 7.4, 0.005% Tween-20, 150 mM NaCl; 25°C; equilibrium end-point fit; conditions: both partners purified
C3 convertase C3bBb^dgf‡ = biological target: T2, C3 convertase C3bBb^dgf‡ (human, UniProt P01024 23-667; P01024 749-1663; P00751 260-764, S699A | D279G | N285D, biotin (EZ-Link Maleimide-PEG2-Biotin) on the free cysteine that is generated after hydrolysis of the reactive thioester); assay: SPR; C3bB^dgf‡ or C3bBb^dgf‡ generated on a C3b coated chip before each injection; P^N12/456 injected (2.4 × 10^-4 to 2 μM on C3bB, 1.2 × 10^-4 to 1 μM on C3bBb); 20 mM HEPES pH 7.4, 0.005% Tween-20, 150 mM NaCl, 5 mM MgCl2; 25°C; equilibrium end-point fit; conditions: both partners purified
T2 construct: complement C3 beta chain, human; C3b alpha' chain, human; In the convertase stability assay (functional rows) the same complex was formed in solution from C3b that was not biotinylated; source: formed on the SPR chip: FB^dgf‡ (100 nM, 5 min) then FD (100 nM, 5 min) over biotinylated C3b, 5 mM MgCl2; copies: + +
T2 sequence (P01024 23-667, stated change not applied, one chain of several): as the sequence (P01024 23-667, one chain of several) above

[3] = biological target: T3, C3 pro-convertase C3bB^dgf‡ generated on a C3b coated chip (human, UniProt P01024 23-667; P01024 749-1663; P00751 26-764, S699A | D279G | N285D, biotin (EZ-Link Maleimide-PEG2-Biotin) on the free cysteine that is generated after hydrolysis of the reactive thioester); assay: as above; conditions: both partners purified
T3 construct: complement C3 beta chain, human; C3b alpha' chain, human; source: formed on the SPR chip: 100 nM FB^dgf‡ injected for 5 min over biotinylated C3b, 5 mM MgCl2; copies: + +
T3 sequence (P01024 23-667, stated change not applied, one chain of several): as the sequence (P01024 23-667, one chain of several) above

[4] = biological target: T4, P^N1′/456, biotinylated monomerized properdin (complex of P^N1′ with P^456) (human, UniProt P27918 28-134; P27918 256-469, biotinylated with EZ-Link Maleimide-PEG2-Biotin as described for C3b (site not stated)); assay: SPR; biotinylated P^N1′/456 on a SensEye P-Strep chip; C3/C3b-CTC injected 2.4 × 10^-2 to 200 μM (200 μM point left out as an outlier); 20 mM HEPES pH 7.4, 0.005% Tween-20, 150 mM NaCl; 25°C; equilibrium end-point fit; conditions: both partners purified
T4 construct: N-terminal Gly-Ser cloning scar from the BamHI site; properdin, human, P^N1′, res; 28-134; includes an additional Cys-Pro (res. 133-134) at the C-terminus of TSR1; C-terminal extension of three alanines from the NotI site; 256-469 (TSR4, TSR5, TSR6); The maleimide-biotin is surmised to sit on a free cysteine at the C-terminus of P^N1′ (Cys132/Cys133); source: HEK293-EBNA, co-expressed, purified …

[5] = biological target: T1, C3b, biotinylated at the free cysteine …; assay: SPR; formation of C3bB and C3bBb on the chip: 100 nM FB^dgf‡ injected for 5 min over biotinylated C3b, then 100 nM FD for 5 min; buffer with 5 mM MgCl2; 25°C; conditions: both partners purified

Chain of C3b (Homo sapiens) (P01024 23-667): as the sequence (P01024 23-667, one chain of several) above

## Properdin single vertices (from UniProt P27918)
C3b (Homo sapiens)
  Kd: 7.8 µM

B1: P^N12/456, monomerized properdin (non-covalent complex of P^N12 with P^456) (complex, human)
chain 1: GSDPVLCFTQYEESSGKCKGLLGGGVSVEDCCLNTAFAYQKRSGGLCQPCRSPRWSLWSTWAPCSVTCSEGSQLRYRRCVGWNGQCSGKVAPGTLEWQLQACEDQQCCPEMGGWSGWGPWEPCSVTCSKGTRTRRRACNHPAPKCGGHCPGQAQESEACDTQQVCP
chain 2: GSVAGGWGPWGPVSPCPVTCGLGQTMEQRTCNHPVPQHGGPFCAGDATRTHICNTAVPCPVDGEWDSWGEWSPCIRRNMKSISCQEIPGQQSRGRTCRGRKFDGHRCAGQQQDIRHCYSIQHCPLKGSWSEWSTWGLCMPPCGPNPTRARQRLCTPLLPKYPPTVSMVEGQGEKNVTFWGRPLPRCEELQGQKLVVEEKRPCLHVPACKDPEEEELAAA
modifications: C-mannosylated Trp-ladder tryptophans; O-fucosylation of Thr92 and Thr151 (observed in the structure) | C-mannosylated Trp-ladder tryptophans; O-fucosylation of Thr272; N-glycosylation of Asn428
notes: N-terminal Gly-Ser cloning scar from the BamHI site; properdin, human, P^N12, res; 28-191 (N-terminal STB domain, TSR1, TSR2); stop codon before the NotI site, no alanine extension; 256-469 (TSR4, TSR5, TSR6); C-terminal extension of three alanines from the NotI site; TSR3 (res. 192-255) is absent; source: HEK293-EBNA, co-expressed (1:1 DNA ratio), purified from supernatant (Ni-Sepharose Excel, …)
[1]
  Kd: 0.69 ± 0.04 µM
[2]
  Kd: 6.8 ± 0.2 µM
C3 convertase C3bBb^dgf‡
  Kd: 0.034 ± 0.001 µM
[3]
  Kd: 0.098 ± 0.002 µM

B2: C3/C3b-CTC domain (C-terminal C345c domain of C3/C3b) (domain or fragment, human)
chain: GSNCFIQKSDDKVTLEERLDKACEPGVDYVYKTRLVKVQLSNDFDEYIMAIEQTIKSGSDEVQVGQQRTFISPIKCREALKLEEKKHYLMWGLSSDFWGEKPNLSYIIGKDTWVEHWPEEDECQDEENQKQCQDLGAFTESMVVFGCPN
notes: N-terminal Gly-Ser cloning scar from the BamHI site; complement C3, human, CTC (C345c) domain, res; 1517-1663; stop codon before the NotI site, no alanine extension; also called C3b/C3 CTC domain
[4]
  Kd: 18.6 ± 1.6 µM

B3: catalytically inactive (S699A) double-gain-of-function (D279G, N285D) factor B mutant (enzyme, human, UniProt P00751 26-764, looked up)
chain: TPWSLARPQGSCSLEGVEIKGGSFRLLQEGQALEYVCPSGFYPYPVQTRTCRSTGSWSTLKTQDQKTVRKAECRAIHCPRPHDFENGEYWPRSPYYNVSDEISFHCYDGYTLRGSANRTCQVNGRWSGQTAICDNGAGYCSNPGIPIGTRKVGSQYRLEDSVTYHCSRGLTLRGSQRRTCQEGGSWSGTEPSCQDSFMYDTPQEVAEAFLSSLTETIEGVDAEDGHGPGEQQKRKIVLDPSGSMNIYLVLDGSGSIGASDFTGAKKCLVNLIEKVASYGVKPRYGLVTYATYPKIWVKVSEADSSNADWVTKQLNEINYEDHKLKSGTNTKKALQAVYSMMSWPDDVPPEGWNRTRHVIILMTDGLHNMGGDPITVIDEIRDLLYIGKDRKNPREDYLDVYVFGVGPLVNQVNINALASKKDNEQHVFKVKDMENLEDVFYQMIDESQSLSLCGMVWEHRKGTDYHKQPWQAKISVIRPSKGHESCMGAVVSEYFVLTAAHCFTVDDKEHSIKVSVGGEKRDLEIEVVLFHPNYNINGKKEAGIPEFYDYDVALIKLKNKLKYGQTIRPICLPCTEGTTRALRLPPTTTCQQQKEELLPAQDIKALFVSEEEKKLTRKEVYIKNGDKKGSCERDAQYAPGYDKVKDISEVVTPRFLCTGGVSPYADPNTCRGDAGGPLIVHKRSRFIQVGVISWGVVDVCKNQKRQKQVPAHARDFHINLFQVLPWLKEKLQDEDLGFL
notes: complement factor B, human; also called FB^dgf‡
[5]
  binding result: binds
